Columns and labels:
[1] = biological target: T1, recombinant human CTLA4 extracellular domain (human, UniProt P16410 36-161); assay: ELISA, wells coated with human CTLA4, assay pH 7.4; lot 6978 in Tris buffer, T2W; curve still rising at log 3 (OD450 at most about 0.3), no plateau; unit from the axis Log[ng/mL]
T1 construct: extracellular domain; also called huCTLA-4
T1 sequence (looked up): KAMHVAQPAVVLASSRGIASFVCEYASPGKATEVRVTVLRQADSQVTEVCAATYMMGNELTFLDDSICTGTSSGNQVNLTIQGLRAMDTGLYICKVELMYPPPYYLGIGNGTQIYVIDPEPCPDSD
Method: (§1) Both ELISA and FACS analysis were used to measure the binding activity. […] The amount of bound antibodies was quantified using anti-human IgG antibody conjugated to HRP. The absorbance at 450 nm in each measurement was proportional to the amount of antibodies bound. […] EC50 value (in ng/mL) for binding to human CTLA4 was determined by absorbance at 450 nm against antibody concentration with Prism variable slope of four-parameter dose-response curve, which was calculated using the nonlinear fit (variable slope, four parameters) model built into GraphPad Prism software (version 7.03). The buffers tested included His buffer (His), Tris buffer (Tris), Glutamine buffer (Glu) and no buffer.

[2] = biological target: T1, recombinant human CTLA4 extracellular …; assay: ELISA, wells coated with human CTLA4, assay pH 6.0; lot 6978 in His buffer, T2W; unit from the axis Log[ng/mL]
Method: as §1

[3] = biological target: T2, human CTLA4 expressed on the cell surface of CHO cells (human, UniProt P16410 36-223); assay: FACS, cells expressing human CTLA4, assay pH 6.0, MFI; lot 6978 in Tris buffer, T2W; unit from the axis Log[ng/mL]
T2 construct: whole, on cells; also called CHO-huCTLA4; huCTLA4
T2 sequence (looked up): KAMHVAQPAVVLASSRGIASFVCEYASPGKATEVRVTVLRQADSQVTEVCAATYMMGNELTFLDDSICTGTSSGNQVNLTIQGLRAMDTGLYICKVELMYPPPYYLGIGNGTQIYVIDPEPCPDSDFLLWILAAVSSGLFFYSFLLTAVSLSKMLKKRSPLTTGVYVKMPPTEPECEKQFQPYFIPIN
Method: (§2) The amount of bound antibodies was quantified using anti-human IgG antibody conjugated to fluorophores. The MFI in each reaction was proportional to the amount of antibodies bound. The EC₅₀ value (in ng/mL) for binding to human CTLA4 on cells was determined by MFI of the singlets population against antibody concentration with a Prism variable slope of four-parameter dose-response curve, which was calculated using the nonlinear fit (variable slope, four parameters) model built into GraphPad Prism software (version 7.03).

[4] = biological target: T2, human CTLA4 expressed on the cell …; assay: FACS, cells expressing human CTLA4, assay pH 6.0, MFI; lot 6978 in His buffer, T0; unit from the axis Log[ng/mL]
Method: as §2

[5] = biological target: T2, human CTLA4 expressed on the cell …; assay: FACS, cells expressing human CTLA4, assay pH 7.4, MFI; lot 6978 in His buffer, T2W; unit from the axis Log[ng/mL]
Method: as §2

[6] = biological target: T2, human CTLA4 expressed on the cell …; assay: FACS, cells expressing human CTLA4, assay pH 6.0, MFI; lot 6972 in Glu buffer, T0; unit from the axis Log[ng/mL]
Method: as §2

[7] = biological target: T2, human CTLA4 expressed on the cell …; assay: FACS, cells expressing human CTLA4, assay pH 6.0, MFI; lot 6972 in His buffer, T0; unit from the axis Log[ng/mL]
Method: as §2

[8] = biological target: T2, human CTLA4 expressed on the cell …; assay: FACS, cells expressing human CTLA4, assay pH 6.0, MFI; lot 6972 in His buffer, T2W; unit from the axis Log[ng/mL]
Method: as §2

[9] = biological target: T1, recombinant human CTLA4 extracellular …; assay: ELISA, wells coated with human CTLA4, assay pH 7.4; lot 6972 in His buffer, T0; unit from the axis Log[ng/mL]
Method: as §1

[10] = biological target: T3, human CTLA4 on CTLA4 Jurkat effector cells (Promega CTLA4 Blockade Assay) (human, UniProt P16410 36-223); assay: cell-based or functional assay
T3 sequence (looked up): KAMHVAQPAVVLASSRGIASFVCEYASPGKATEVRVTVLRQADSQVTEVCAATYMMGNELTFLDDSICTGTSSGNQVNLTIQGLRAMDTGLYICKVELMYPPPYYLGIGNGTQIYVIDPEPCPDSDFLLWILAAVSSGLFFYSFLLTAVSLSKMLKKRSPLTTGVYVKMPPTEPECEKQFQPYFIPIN

[11] = biological target: T1, recombinant human CTLA4 extracellular …; assay: ELISA, wells coated with human CTLA4, assay pH 7.4; lot 6972 in Glu buffer, T0; unit from the axis Log[ng/mL]
Method: as §1

[12] = biological target: T2, human CTLA4 expressed on the cell …; assay: FACS saturation, CHO-huCTLA-4, pH 7.4, MFI, titration up to about log 6.5; no unit in the table, unit from the axis Log Antibodies [ng/ml]
Method: The amount of antibodies bound on the cells was quantified using anti-human IgG antibody conjugated to fluorophores. EC₅₀ values at pH 6.0 and 7.4 for binding to cells were calculated using the nonlinear fit (variable slope, four parameters) model built into GraphPad Prism software (version 7.03). The expression levels of human CTLA4 or cynomolgus CTLA4 on the surface of the CHO cells were determined using a BD QuantiBRITE™ PE kit.
Finally, saturations of the antibodies on the CHO cells expressing human or cynomolgus CTLA4 at pH 7.4 were also measured by FACS (FIGS. 8A-8B).

[13] = biological target: T2, human CTLA4 expressed on the cell …; assay: FACS, cells expressing human CTLA4, assay pH 7.4, MFI; lot 6972 in Tris buffer, T0; unit from the axis Log[ng/mL]
Method: as §2

| EC50 [1] [µg/mL] | EC50 [2] [µg/mL] | EC50 [3] [µg/mL] | EC50 [4] [µg/mL] | EC50 [5] [µg/mL] | EC50 [6] [µg/mL] | EC50 [7] [µg/mL] | EC50 [8] [µg/mL] | EC50 [9] [µg/mL] | EC50 of bioluminescence (RLUs), Promega CTLA4 Blockade Assay, pH 6.0; unit from the axis Log (µg/mL) [10] [µg/mL] | EC50 [11] [µg/mL] | EC50 [12] [µg/mL] | EC50 [13] [µg/mL] | Binder |
| --- | --- | --- | --- | --- | --- | --- | --- | --- | --- | --- | --- | --- | --- |
| 1.49 | 0.0441 | ~0.152 | 0.159 | 1.18 |  |  |  |  |  |  |  |  | BA-087-08-32 (antibody, V domains shown, Detected with anti-human IgG and a molecular weight of 146 kDa was used in SPR, so it was tested as a whole IgG; also called BA-087-08-032; BA-087-08-32 (# 6978)) VH: EVQLVQSGAEVKKPGATVKISCKVSGFTFSHYTMHWIRQSPSRGLEWLGFISYDGNYKYYADSVKGRFTISRDNAKNSLYLQMNSLRAEDTAVYYCARTGWLGPFDYWGQGTLVTVSS VL: EIVMTQSPATLSVSPGERATLSCRASQSVGSSYLAWYQQKPGKAPKLLIYGAFSRATGVPSRFSGSGSGTDFTLTISSLQPEDFATYYCQQDGSSPWTFGQGTKVEIK |
|  |  |  |  |  | 0.291 | 0.291 | 0.295 | 0.0544 | 1.2 | 0.11 | 0.846 | 0.681 | BA-087-05-19 (antibody, V domains shown, Detected with anti-human IgG and a molecular weight of 146 kDa was used in SPR, so it was tested as a whole IgG; also called BA-087-05-019; BA-087-05-19 (# 6972)) VH: EVQLVESGGGLVQPGGSLRLSCAASGFTFSHYTMHWVRQAPGKGLEWVSFISYDGNNKYYADSVKGRFTISRDNSKNTLYLQMNSLRAEDTAVYYCARTGWLGPFDYWGQGTLVTVSS VL: AIQLTQSPSSLSASVGDRVTITCRASQYVGSSYLAWYLQKPGQSPQLLIYGAFSRATGIPARFSGSGSGTEFTLTISSLQSEDFAVYYCQQDGSSPWTFGQGTKVEIK |
